# Assay results taken from patent US20130266605A1, “PEPTIDE INHIBITORS OF CD40L SIGNALING AND USES THEREFOR” (PHYLOGICA LIMITED, priority 2010, published 2013).
# Positions of bridges follow the written chain, without caps; N, C: chain ends. Residues, ends and D or L forms follow the SMILES beside them. Chains are numbered I, II in the order given. No end group written: not given here. PEG = not defined here
# T1: CD40L-CD40 interaction (Homo sapiens, UniProt P29965)
# T1 sequence (P29965 113-261 limits assumed): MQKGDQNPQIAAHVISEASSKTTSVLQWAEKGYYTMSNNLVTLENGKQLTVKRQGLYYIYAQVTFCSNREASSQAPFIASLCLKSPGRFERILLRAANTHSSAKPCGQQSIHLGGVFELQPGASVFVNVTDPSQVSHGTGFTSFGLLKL
# T2: CD40 ligand (UniProt P29965 108-261, limits assumed)
# T2 construct: Used immobilised, soluble, or biotinylated on streptavidin beads; also called CD154; soluble CD40L
# T2 sequence (looked up): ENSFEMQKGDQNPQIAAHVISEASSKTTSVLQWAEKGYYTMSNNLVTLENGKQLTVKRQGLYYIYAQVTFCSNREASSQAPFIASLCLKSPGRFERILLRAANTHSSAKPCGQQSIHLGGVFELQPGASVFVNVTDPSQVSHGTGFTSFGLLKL
# T3: CD40L (Homo sapiens, UniProt P29965)
# T3 sequence (P29965 113-261 limits assumed): T1 sequence (P29965 113-261 limits assumed)
# B1: LAEHAVWSLKcFPDWEWYNINIFGTDDPNHFWVEcDGHGKILFPGYPEGYYENHFLHSFELED (peptide)
# peptide: LAEHAVWSLKCFPDWEWYNINIFGTDDPNHFWVECDGHGKILFPGYPEGYYENHFLHSFELED
# modifications: not fully specified
# B2: Cys_M1_6S-Cys_M1_189S heterodimer (peptide)
# peptide 1: CHPFSIKNVFSIWNFFSVY
# peptide 2: CLLLFFFSPPFSIFSFSLTTLS
# modifications: disulfide I:1-II:1
# notes: also called 6-189 dimer
# Biological target: T1, CD40L-CD40 interaction
# Assay: Chemiluminescent proximity assay (Alphascreen)
# Format: binding
# Conditions: not given
# Description: In one example, the Alphascreen assay (PerkinElmer) was employed according to the manufacturer's instructions.
# Homodimers and heterodimers were also assayed by chemiluminescent proximity assay for their ability to inhibit CD40L-CD40 interaction.
row,Molecule,EC50
1,CC[C@H](C)[C@H](NC(=O)[C@H](CC(C)C)NC(=O)[C@H](Cc1c[nH]c2ccccc12)NC(=O)[C@H](CCSC)NC(=O)[C@H](CCC(=O)O)NC(=O)CNC(=O)[C@H](CCC(=O)O)NC(=O)[C@H](CC(C)C)NC(=O)[C@H](CO)NC(=O)[C@H](CCC(=O)O)NC(=O)[C@@H](NC(=O)[C@@H](N)CCCNC(=N)N)[C@@H](C)CC)C(=O)N[C@@H](CC(N)=O)C(=O)N1CCC[C@H]1C(=O)N[C@@H](Cc1ccccc1)C(=O)N[C@@H](CC(N)=O)C(=O)NCC(=O)N[C@@H](CCC(=O)O)C(=O)N[C@H](C(=O)N[C@@H](CC(C)C)C(=O)N[C@@H](CC(=O)O)C(=O)N[C@@H](CCC(=O)O)C(=O)N[C@@H](Cc1c[nH]cn1)C(=O)N[C@H](C(=O)N[C@@H](CC(C)C)C(=O)N[C@@H](CCC(=O)O)C(=O)N[C@H](C(=O)N[C@@H](Cc1c[nH]c2ccccc12)C(=O)N[C@@H](CC(C)C)C(=O)N[C@@H](CCCCN)C(=O)O)C(C)C)[C@@H](C)O)[C@@H](C)O [CD40L M8_748] (H-RIESLEGEMWLINPFNGETLDEHTLEVWLK-OH),184 nM

# Same assay, conditions: monomeric non-PEGylated (unmodified) base peptide; 50% reduction in control emission at 520-620 nm; read-out: EC50nmodified) CD40L/CD40-Fc/BAF617
row,Molecule,EC50
1,B1,197 nM

# Biological target: T2, CD40 ligand
# Assay: phage-displayed peptide on bound CD40L, soluble CD40L as competitor
# Conditions: not given
row,Molecule,IC50
1,PRWVRNRFYCLFVPSGVQRGGIHLWFSNWVR (Base peptide) [CD40L M1_50],45.8 nM
2,HPFSIKNVFCIWNFFSVY (Base peptide) [CD40L M1_6],16.3 nM
3,PPRYNLFFLFRFYCSFRRDYLYF (Base peptide) [CD40L M1_9],81.1 nM

# Biological target: T2, CD40 ligand
# Assay: cell-based or functional assay
# Conditions: not given
row,Molecule,"EC50, inhibition of CD40L-induced CD86 expression on primary B-cells"
1,B2,140 nM

# Biological target: T2, CD40 ligand
# Assay: cell-based or functional assay
# Conditions: not given
# Remark: another data set of the same source
row,Molecule,"EC50 PEGylated peptide, inhibition of CD40L-induced CD86 expression on primary B-cells"
1,"{PEG}-DAAGREFFQIAGLFSFRHHWWQA (reading uncertain, also called PEGylated M1_30S) [PEGylated CD40L M1_30s]",> 2000 nM
2,"{PEG}-PRWVRNRFYSLFVPSGVQRGGIHLWFSNWVR (reading uncertain, also called PEGylated M1_50S) [PEGylated CD40L M1_50s]",30 nM
3,"{PEG}-PPRYNLFFLFRFYSSFRRDYLYF (reading uncertain, also called PEGylated M1_9S) [PEGylated CD40L M1_9s]",180 nM
4,"{PEG}-HSFVLFGVNVPFNIIDFQMRVKS (reading uncertain, also called PEGylated M1_42S) [PEGylated CD40L M1_42s]",5000 nM
5,"{PEG}-HPFSIKNVFSIWNFFSVY (reading uncertain, also called PEGylated M1_6S) [PEGylated CD40L M1_6s]",1.5 nM
6,"{PEG}-LPFVPYRSHVLKYGWFFPVQWSIFAVLPFQYLHRSR (reading uncertain, also called PEGylated M1-18S) [PEGylated CD40L M1_18s]",90 nM

# Biological target: T2, CD40 ligand
# Assay: Alphascreen proximity assay, inhibition of CD40L-CD40
# Conditions: not given
row,Molecule,EC50
1,B2,0.000174 nM

# Biological target: T3, CD40L
# Assay: Octet Red label-free association/dissociation analysis
# Format: binding
# Conditions: not given
# Description: Label-free analyses of the associations and dissociations of base peptides and serine derivatives of base peptides with the CD40L target protein were performed using the Octet Red system (ForteBio, Inc., USA) according to the manufacturer's instructions. These analyses provide kinetic constants of CD40L binding activity, especially the association rate constant (Ka) and dissociation rate constant ([…]) of binding, i.e., measures of the “on” and “off” rates of the peptides relative to soluble CD40L.
row,Molecule,Kd
1,CC[C@H](C)[C@H](NC(=O)[C@H](CC(C)C)NC(=O)[C@H](Cc1c[nH]c2ccccc12)NC(=O)[C@H](CCSC)NC(=O)[C@H](CCC(=O)O)NC(=O)CNC(=O)[C@H](CCC(=O)O)NC(=O)[C@H](CC(C)C)NC(=O)[C@H](CO)NC(=O)[C@H](CCC(=O)O)NC(=O)[C@@H](NC(=O)[C@@H](N)CCCNC(=N)N)[C@@H](C)CC)C(=O)N[C@@H](CC(N)=O)C(=O)N1CCC[C@H]1C(=O)N[C@@H](Cc1ccccc1)C(=O)N[C@@H](CC(N)=O)C(=O)NCC(=O)N[C@@H](CCC(=O)O)C(=O)N[C@H](C(=O)N[C@@H](CC(C)C)C(=O)N[C@@H](CC(=O)O)C(=O)N[C@@H](CCC(=O)O)C(=O)N[C@@H](Cc1c[nH]cn1)C(=O)N[C@H](C(=O)N[C@@H](CC(C)C)C(=O)N[C@@H](CCC(=O)O)C(=O)N[C@H](C(=O)N[C@@H](Cc1c[nH]c2ccccc12)C(=O)N[C@@H](CC(C)C)C(=O)N[C@@H](CCCCN)C(=O)O)C(C)C)[C@@H](C)O)[C@@H](C)O [CD40L M8_748] (H-RIESLEGEMWLINPFNGETLDEHTLEVWLK-OH),5 nM

# Same assay, conditions: base peptides; equilibrium dissociation constant; read-out: KD
row,Molecule,Kd
1,B1,8 nM

# Biological target: T2, CD40 ligand
# Assay: Octet Red label-free (BLI)
# Conditions: not given
row,Molecule,Kd
1,HPFSIKNVFCIWNFFSVY (Base peptide) [CD40L M1_6],24 nM
2,PPRYNLFFLFRFYCSFRRDYLYF (Base peptide) [CD40L M1_9],8 nM

# Biological target: T2, CD40 ligand
# Assay: Alphascreen, unmodified peptide, inhibition of CD40L/CD40-Fc
# Conditions: not given
row,Molecule,EC50
1,HPFSIKNVFCIWNFFSVY (Base peptide) [CD40L M1_6],440 nM
2,PPRYNLFFLFRFYCSFRRDYLYF (Base peptide) [CD40L M1_9],370 nM

# Biological target: T2, CD40 ligand
# Assay: Alphascreen, PEGylated peptide, inhibition of CD40L/CD40-Fc
# Conditions: not given
row,Molecule,EC50
1,"{PEG}-DAAGREFFQIAGLFSFRHHWWQA (reading uncertain, also called PEGylated M1_30S) [PEGylated CD40L M1_30s]",32 nM
2,"{PEG}-PRWVRNRFYSLFVPSGVQRGGIHLWFSNWVR (reading uncertain, also called PEGylated M1_50S) [PEGylated CD40L M1_50s]",1500 nM
3,"{PEG}-PPRYNLFFLFRFYSSFRRDYLYF (reading uncertain, also called PEGylated M1_9S) [PEGylated CD40L M1_9s]",48 nM
4,"{PEG}-HSFVLFGVNVPFNIIDFQMRVKS (reading uncertain, also called PEGylated M1_42S) [PEGylated CD40L M1_42s]",112 nM
5,"{PEG}-HPFSIKNVFSIWNFFSVY (reading uncertain, also called PEGylated M1_6S) [PEGylated CD40L M1_6s]",48 nM
6,"{PEG}-LPFVPYRSHVLKYGWFFPVQWSIFAVLPFQYLHRSR (reading uncertain, also called PEGylated M1-18S) [PEGylated CD40L M1_18s]",3300 nM
